Source: patent US20060134788

Tested on: T1, MJ1 integrase (phage phiFC1) (Enterococcus phage phiFC1)
T1 sequence: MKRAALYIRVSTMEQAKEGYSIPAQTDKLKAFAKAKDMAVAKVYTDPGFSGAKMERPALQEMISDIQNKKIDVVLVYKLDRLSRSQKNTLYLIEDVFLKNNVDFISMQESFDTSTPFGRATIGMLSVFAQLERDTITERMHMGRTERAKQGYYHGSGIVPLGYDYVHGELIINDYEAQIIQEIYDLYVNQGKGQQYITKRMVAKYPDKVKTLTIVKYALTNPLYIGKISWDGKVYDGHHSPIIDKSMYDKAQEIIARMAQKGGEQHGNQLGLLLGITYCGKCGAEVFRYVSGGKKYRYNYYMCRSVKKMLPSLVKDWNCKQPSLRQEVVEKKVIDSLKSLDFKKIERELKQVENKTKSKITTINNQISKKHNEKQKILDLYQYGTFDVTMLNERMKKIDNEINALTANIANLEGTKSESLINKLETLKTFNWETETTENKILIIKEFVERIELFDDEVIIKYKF
Assay: cell_activity
Conditions: 396 cells without MJ1, FACS 72 h

| Sequence | activity (fluorescent cells) (attB x attP integration in 293T cells) | activity (fluorescent cells) (attP x attB integration in 293T cells) |
| --- | --- | --- |
| CGGCCATTGAATTAGGGTGTCGAATTTATCAAAGTAGTCAAATCAAATTTGGCAAAGTTACGTCCAGTCAACAAGTCGCTCAACGATTACTCCAAGAGATGAAGGGGCTGCAACAAGAACATTTAATTTGTATTTACTTGAATACCAAGAATGACATTATCCAACAGAAAACGATTTTCAAAGGATCACTGAATCAAAGTATTGCTCATCCACGCGAAATTTTTCGGGAAGCGGTTAAATATTCTTCTGCTCGCATACTATTAGCTCATAATCATCCATCTGGCAATCCG (double strand) [attB 290 bp] | 1240 | – |
| GAAGATCTTGTTCTCGAGCATAGTCTCCTTCAAGTTTTGTTATATCTGATAATAGAGACTTTTCTTTTTGTTGTAAACTATTGATTGACAAATCTGGTCCTCCTTTAAAATATATAATTAATATTGGTTTAATTATACCATTCTATAGGTAAGAACAGTAATATGACCAAATTTAAATATCTTTTTATGCACTAATCAAAGTTTTCCTTACAAGCATTTNTTCAATTACGAGTTGATTTCTTTTATTCAAATGACCATAGACAGCTAGTTCAGATTTTTCGGGTAGCATTAGTAACATATTTGCTAATTCGTATTTGGAGACGATACAGTTTATAGTTTCGTCCTGTGTTACTAATGAGAATCGAACTAGCATTTTTGGGTACATACTTAACATTCTAATCTTTTCAACTACTCCTACATAATTAGTTTTCATAATATCGGCCTCCTAGTAATACAATTATACCGAATGCATGTTCGTATTGTCTATAGGTTTGTATAAATGTAATATTTTAGGTATATGATTTTGTTTATTAGTGTAAATAACACTATGTACCTAAAATTTATATTTAATAATTACCTCATCATCAAATAGTTCTATACGTTCAACAAACTCTTTGATGATAAGGATTTTATTTTCTGTAGTTTCAGTTTCCCAATTAAAAGTTTTTAACGTTTCAAGCTTATTAATTAATGACTCACTTTTGGTACCTTCTAAGTTTGCTATATTGGCAGTTAACGC (double strand) [attP 739 bp] | – | 1240 |
